Molecular target: the molecule itself
Assay: cryo-EM structure

B1: SPATA5 wild-type, C-terminal 3xFLAG (enzyme, human, UniProt Q8NB90 1-893, looked up)
chain: MSSKKNRKRLNQSAENGSSLPSAASSCAEARAPSAGSDFAATSGTLTVTNLLEKVDDKIPKTFQNSLIHLGLNTMKSANICIGRPVLLTSLNGKQEVYTAWPMAGFPGGKVGLSEMAQKNVGVRPGDAIQVQPLVGAVLQAEEMDVALSDKDMEINEEELTGCILRKLDGKIVLPGNFLYCTFYGRPYKLQVLRVKGADGMILGGPQSDSDTDAQRMAFEQSSMETSSLELSLQLSQLDLEDTQIPTSRSTPYKPIDDRITNKASDVLLDVTQSPGDGSGLMLEEVTGLKCNFESAREGNEQLTEEERLLKFSIGAKCNTDTFYFISSTTRVNFTEIDKNSKEQDNQFKVTYDMIGGLSSQLKAIREIIELPLKQPELFKSYGIPAPRGVLLYGPPGTGKTMIARAVANEVGAYVSVINGPEIISKFYGETEAKLRQIFAEATLRHPSIIFIDELDALCPKREGAQNEVEKRVVASLLTLMDGIGSEVSEGQVLVLGATNRPHALDAALRRPGRFDKEIEIGVPNAQDRLDILQKLLRRVPHLLTEAELLQLANSAHGYVGADLKVLCNEAGLCALRRILKKQPNLPDVKVAGLVKITLKDFLQAMNDIRPSAMREIAIDVPNVSWSDIGGLESIKLKLEQAVEWPLKHPESFIRMGIQPPKGVLLYGPPGCSKTMIAKALANESGLNFLAIKGPELMNKYVGESERAVRETFRKARAVAPSIIFFDELDALAVERGSSLGAGNVADRVLAQLLTEMDGIEQLKDVTILAATNRPDRIDKALMRPGRIDRIIYVPLPDAATRREIFKLQFHSMPVSNEVDLDELILQTDAYSGAEIVAVCREAALLALEEDIQANLIMKRHFTQALSTVTPRIPESLRRFYEDYQEKSGLHTL
Q: Does B1 bind?
A: binds

Source: publication doi:10.1101/2025.11.07.687187 (bioRxiv, 2025)
